{"source": "patent US10293027B2", "about": "“Methods for treating metabolic disorders using FGF” (Salk Institute for Biological Studies, priority 2010, dated 2019)", "molecules": {"B1": {"name": "FGF-1: recombinant mouse FGF-1 (acidic fibroblast growth factor), a secreted protein that binds heparin and FGF receptors (protein, UniProt P61148 16-155, looked up)", "Fibroblast growth factor 1": "FNLPLGNYKKPKLLYCSNGGHFLRILPDGTVDGTRDRSDQHIQLQLSAESAGEVYIKGTETGQYLAMDTEGLLYGSQTPNEECLFLERLEENHYNTYTSKKHAEKNWFVGLKKNGSCKRGPRTHYGQKAILFLPLPVSSD"}}, "key": {"ob/ob mice [1]": {"tested_on": "ob/ob mice", "experiment": "Chronic FGF-1 treatment for 36 days: glucose, food intake, body composition, serum lipids, liver (Examples 7-10)", "assay_type": "in vivo, mouse", "method": "Blood was collected by tail bleeding either in the ad libitum fed state or following overnight fasting. Free fatty acids (Wako), triglycerides (Thermo), and cholesterol (Thermo) were measured using enzymatic colorimetric methods following the manufacturer's instructions. Serum insulin levels were measured using an Ultra Sensitive Insulin ELISA kit (Crystal Chem). Serum adiponectin levels were measured by ELISA (Millipore). Plasma adipokine levels were measured using a Milliplex™ MAP kit (Millipore).\nTissues were fixed in 4% phosphate-buffered formalin, embedded in paraffin, sectioned at 4 μm, and stained with hematoxylin and eosin according to standard procedures. For immunohistochemistry, tissues were deparaffinized in xylene and rehydrated. Slides were incubated with 5% normal donkey serum in PBS (+0.2% Triton-X100 and 1% BSA) for 30 min, and subsequently sections were incubated overnight with a 1:200 dilution of primary antibodies at 4° C. and using Alexa Fluor 488 or 595 as secondary antibodies for 2 hrs at RT.\nIn Example 5, ob/ob male mice (8 wk old) were randomized into three groups and treated with daily subcutaneous (s.c.) injections of recombinant mouse FGF-1 (0.5 mg/kg in PBS), oral rosiglitazone (TZD, 5 mg/kg in 0.5% carboxymethyl cellulose), or vehicle. Blood glucose levels were measure in fed animals one hour after treatment. Total body composition analysis was performed using an EchoMRI-100™ (Echo Medical Systems, LLC).\nTo investigate the metabolic effects of chronic FGF-1 treatment in ob/ob mice, eight weeks old male ob/ob mice were treated with vehicle or recombinant mouse FGF-1 (0.5 mg/kg/3 days, s.c.) for a period of 36 days. During this time, glucose levels, food intake, and body composition were monitored."}, "ob/ob mice [2]": {"tested_on": "ob/ob mice", "experiment": "Insulin tolerance test after 4 weeks of chronic FGF-1 administration", "assay_type": "in vivo, mouse", "settings": "after 4 weeks of chronic administration", "method": "Glucose tolerance tests (GTT) were conducted after overnight fasting. Mice were injected intraperitoneally (i.p.) with 1 g of glucose per/kg body weight, and blood glucose was monitored at 0, 15, 30, 60, 90, and 120 min using a OneTouch Ultra glucometer (Lifescan Inc). Insulin tolerance tests (ITT) were conducted after overnight fasting. Mice were injected i.p. with 0.5 U of insulin/kg body weight (Humulin R; Eli Lilly), and blood glucose was monitored at 0, 15, 30, 60, 90, and 120 min using a OneTouch Ultra glucometer (Lifescan Inc). Real-time metabolic analyses were conducted in an undisturbed room under 12 h/12 h light/dark cycles using a Comprehensive Lab Animal Monitoring System (Columbus Instruments).\nThese tests were carried out as described above."}, "ob/ob diabetic mice": {"tested_on": "ob/ob diabetic mice", "experiment": "Delivery method (s.c., i.p., i.v.) and FGF-1 blood glucose effects (Example 11)", "assay_type": "in vivo, mouse", "method": "FIG. 22. Assessment of delivery method on FGF-1 blood glucose effects.\nFIG. 23. Assessment of delivery method on duration of FGF-1 activity. Single subcutaneous (sc) or intravenous (iv) injection of FGF-1 (0.5 mg/kg) in ob/ob mice.\nTo determine if the effects of FGF-1 depend on the route of administration, we tested blood glucose levels of ob/ob mice in response to 0.5 mg/kg body weight FGF-1 delivered s.c., i.p. and i.v. PBS injections were used as controls. […] We next compared i.v. and s.c. injections for duration of the glucose normalizing effect."}, "[3]": {"tested_on": "diet-induced obesity mice (C57BL/6)", "experiment": "Single s.c. FGF-1 injection, blood glucose in DIO mice", "assay_type": "in vivo, mouse", "settings": "single s.c. injection 0.5 mg/kg", "description": "FIG. 25. FGF1 effects in DIO mice.\nThe ob/ob model is considered to represent a very severe diabetic disease. In order to investigate the effect of FGF-1 on less severe diabetic/metabolic disorder models, we tested blood glucose levels in db/db mice and diet induced obese mice."}, "[4]": {"tested_on": "Glucose Transporter 1 (Glut1)", "experiment": "Glut1 expression in 3T3-L1 adipocytes", "assay_type": "cell-based, mouse", "method": "FIGS. 6A-6B. FGF-1 and rosiglitazone stimulation of Glut1 expression in 3T3-L1 adipocytes. 3T3-L1 adipocytes were treated with FGF-1 (+=50 ng/ml, ++=100 ng/ml), rosiglitazone (1 μM), or in combination. (A) mRNA (top) and protein (bottom) levels of Glucose Transporter 1 (Glut1); (B) mRNA (top) and protein (bottom) levels of Glucose Transporter 4 (Glut4).\n3T3-L1 mouse pre-adipocytes were from American Type Culture Collection (ATCC, Rockville, Md.). Cells were maintained at sub-confluence in growth medium (GM) containing 10% calf serum in Dulbecco's modified Eagle's medium (DMEM) at 37° C. and 5% CO2. For standard adipocyte differentiation, cells were stimulated at 2 days post confluency (referred as day 0) with differentiation medium (DM) containing 10% fetal bovine serum (FBS), 5 μg/ml insulin, 1 μM dexamethasone, and […] 3-isobutyl-1-methylxanthine (IBMX) for 48 hours. […]\nTotal RNA was isolated from mouse tissue and cells using TRIzol reagent (Invitrogen). cDNA was synthesized from 1 μg of DNase-treated total RNA using SuperScript II reverse transcriptase (Invitrogen). mRNA levels were quantified by QPCR with SYBR Green (Invitrogen). Samples were run in technical triplicates, and relative mRNA levels were calculated by using the standard curve methodology and normalized against 36B4 mRNA levels in the same samples."}, "ob/ob mice [5]": {"tested_on": "ob/ob mice", "experiment": "Acute effects of FGF-1 on blood glucose: dose response and time courses after s.c. and i.v. administration (Example 6)", "assay_type": "in vivo, mouse", "settings": "for duration of blood glucose reduction after intravenous administration: 0.2 mg/kg i.v.", "method": "FIG. 8. Dose response effect of FGF-1 (s.c., mg/kg) on blood glucose levels of ob/ob mice.\nFIG. 9. Effect of FGF-1 (s.c., 0.5 mg/kg) on blood glucose levels of ob/ob mice.\nFIG. 10. Effect of intravenous FGF1 (0.2 mg/kg) on blood glucose levels of ob/ob mice.\nIn order to establish the acute effects of FGF-1 on blood glucose levels, dose response curves (FIG. 8) and time courses after subcutaneous (FIG. 9) and intravenous (FIG. 10) administration were performed."}, "[6]": {"settings": "after the 36 day treatment period"}}, "note": "“Also recorded” adds a separate entry of the source.", "data": [{"molecule": "B1", "values": [{"measurement": "blood glucose under chronic treatment", "setting": "ob/ob mice [1]; 0.5 mg/kg every third day s.c., 36 days", "value": "glucose levels are normalized by the first time point tested (day 2) and remain stable for the remainder of the test period; also recorded: completely normalized blood glucose"}, {"measurement": "body weight / weight gain", "setting": "ob/ob mice [1]; 0.5 mg/kg/3 days s.c.", "value": "remains lower than in untreated ob/ob mice; also recorded: reduced weight gain during the first week"}, {"measurement": "food intake", "setting": "ob/ob mice [1]; 0.5 mg/kg/3 days s.c.", "value": "initially results in reduced food intake; also recorded: reduced food intake during the first 1-2 weeks of chronic administration, but after two weeks food intake returned to normal"}, {"measurement": "percent lean mass", "setting": "ob/ob mice [1]; 0.5 mg/kg/3 days s.c.", "value": "significantly higher than in untreated mice; also recorded: increased lean mass as compared with control mice"}, {"measurement": "total percent body fat", "setting": "ob/ob mice [1]; 0.5 mg/kg/3 days s.c.", "value": "reduced percentage body fat; also recorded: reduced increase in percent body fat"}, {"measurement": "hepatic glycogen", "setting": "ob/ob mice [1]; [6]", "value": "much higher; also recorded: increased levels of hepatic glycogen"}, {"measurement": "hepatic steatosis (H&E staining of liver)", "setting": "ob/ob mice [1]; [6]", "value": "much less steatosis, and little if any inflammation; also recorded: Steatosis is dramatically reduced compared to control"}, {"measurement": "insulin tolerance / insulin sensitivity (ITT)", "setting": "ob/ob mice [2]", "value": "increased insulin sensitivity"}, {"measurement": "acute blood glucose effect by s.c., i.p. and i.v. delivery", "setting": "ob/ob diabetic mice; 0.5 mg/kg", "value": "about the same for all three injection methods"}, {"measurement": "time of stable glucose levels after intravenous administration", "setting": "ob/ob diabetic mice; 0.5 mg/kg i.v., duration of the test", "value": "at least 60 hours"}, {"measurement": "duration of glucose normalizing effect, iv compared to sc", "setting": "ob/ob diabetic mice; single injection 0.5 mg/kg", "value": "persist longer when administered iv as compared to sc"}, {"measurement": "blood glucose in diet-induced obesity mice", "setting": "[3]; 0.5 mg/kg", "value": "effective for reducing blood glucose levels in both systems"}, {"measurement": "blood glucose in diet-induced obesity mice", "setting": "[3]; listed as FGF1, 0.5 mg/kg", "value": "normalizes blood glucose"}, {"measurement": "expression of GLUT1 in combination with rosiglitazone", "setting": "[4]; 3T3-L1 adipocytes, FGF-1 plus rosiglitazone (1 μM)", "value": "acts synergistically with rosiglitazone"}, {"measurement": "expression of GLUT1", "setting": "[4]; mouse 3T3-L1 adipocytes, prolonged treatment, FGF-1 50 or 100 ng/ml", "value": "induces the expression of GLUT1"}, {"measurement": "duration of blood glucose reduction after intravenous administration", "setting": "ob/ob mice [5]; ob/ob mice", "value": "significantly reduced blood glucose for at least one week; also recorded: much longer lasting (at least one week)"}, {"measurement": "duration of blood glucose reduction after intravenous administration", "setting": "ob/ob mice [5]; ob/ob mice, listed as FGF1", "value": "last up to one week"}, {"measurement": "dose dependence of glucose reduction", "setting": "ob/ob mice [5]; ob/ob mice", "value": "dramatic dose-dependent reduction of glucose levels"}, {"measurement": "EC50 of glucose lowering effect", "setting": "ob/ob mice [5]; s.c., blood glucose of ob/ob mice, dose response", "value": 0.25, "unit": "mg/kg"}, {"measurement": "dose at which maximum glucose lowering effects are reached", "setting": "ob/ob mice [5]; s.c., ob/ob mice", "value": 0.5, "unit": "mg/kg"}, {"measurement": "onset of effect of subcutaneous dosing", "setting": "ob/ob mice [5]; s.c., ob/ob mice", "value": "effective within a matter of hours"}]}]}
